B1: r16_88_TrROS_Hall (parent)
chain: EVIELKIKFKTPEQREKLKEIAKKLNAEVVEEKDGEVIIRFKTPEQAERALKEAEKLGAEVEL

Variants of B1 are the subject of this data set. As to the kind of experiment: folding stability dG (cDNA display proteolysis); higher = more stable. Particulars: PBS, room temperature.
In the case of P12R, the “folding stability dG” value is 4.73 kcal/mol. For P12A the value was 4.39 kcal/mol.

I7E: the “folding stability dG” value is 2.11 kcal/mol. In the case of I7C it was 4.31 kcal/mol; in that of L18R, 2.12 kcal/mol; in that of L18D, 1.24 kcal/mol.

Take L18K: the “folding stability dG” value turned out to be 1.68 kcal/mol. L18F: the “folding stability dG” value was 4.29 kcal/mol. For L18W the value was 4.54 kcal/mol; for I38P, 1.19 kcal/mol; for I38R, 4.28 kcal/mol. In the case of I38Q it was 4.33 kcal/mol; in that of I38T, 4.44 kcal/mol; in that of K8S, 4.1 kcal/mol. For K8T the value was 4.33 kcal/mol; for K8Q, 4.14 kcal/mol; for K8A, 4.09 kcal/mol. A50E: the “folding stability dG” value is 3.34 kcal/mol.

As for A50C, the “folding stability dG” value was found to be 4.36 kcal/mol. Regarding E16F, the “folding stability dG” value amounted to 4.73 kcal/mol. For E16L the value was 4.6 kcal/mol; for E16V, 4.47 kcal/mol; for E16R, 4.54 kcal/mol. In the case of K52R it was 4.45 kcal/mol; in that of K52L, 4.44 kcal/mol.

Regarding F9C, the “folding stability dG” value was 4.19 kcal/mol. In the case of F9Q it was 3.28 kcal/mol; in that of F9K, 2.75 kcal/mol; in that of F9L, 4 kcal/mol. In the case of E31T, the “folding stability dG” value amounted to 4.35 kcal/mol. In the case of E31S it was 4.6 kcal/mol. For E31I the value was 4.45 kcal/mol; for E31N, 4.49 kcal/mol.

Consider T43P, for which the “folding stability dG” value came to 3.06 kcal/mol. For T43I the value was 4.48 kcal/mol. For T43L the value was 4.67 kcal/mol.

With E48M, the “folding stability dG” value was 4.46 kcal/mol.

For E48S, the “folding stability dG” value came out at 4.39 kcal/mol. For E48Y the value was 4.67 kcal/mol; for L57C, 4.2 kcal/mol. For the variant L57F, the “folding stability dG” value was found to be 4.33 kcal/mol.

For L57Q, the “folding stability dG” value was found to be 4.25 kcal/mol.

On to L57E, for which the “folding stability dG” value is 4.36 kcal/mol. In the case of L57N it was 4.35 kcal/mol. For K33I the value was 4.27 kcal/mol; for K33E, 3.99 kcal/mol; for K33W, 4.45 kcal/mol. In the case of K10N it was 4.22 kcal/mol.

As to K10R, the “folding stability dG” value was found to be 4.47 kcal/mol. In the case of K10Y it was 4.5 kcal/mol; in that of K10T, 4.38 kcal/mol; in that of A54I, 4.43 kcal/mol. In the case of A54T it was 4.19 kcal/mol; in that of V61E, 4.3 kcal/mol. For D34E the value was 4.44 kcal/mol; for D34N, 4.3 kcal/mol; for D34A, 4.32 kcal/mol. In the case of F41G, the “folding stability dG” value amounted to 3.01 kcal/mol. For F41P the value was 3.46 kcal/mol; for F41H, 3.13 kcal/mol; for L51K, 4.61 kcal/mol. For L51D the value was 3.96 kcal/mol; for L51M, 4.4 kcal/mol; for L51P, 2.79 kcal/mol. In the case of K17Q it was 4.42 kcal/mol; in that of L25T, 4.29 kcal/mol. In the case of L25S, the “folding stability dG” value was determined as 4.33 kcal/mol. For L25K the value was 3.82 kcal/mol; for L25F, 4.63 kcal/mol. Turning to P44R, the “folding stability dG” value came to 4.18 kcal/mol. In the case of E13T it was 4.32 kcal/mol. On to E13L, for which the “folding stability dG” value was 4.88 kcal/mol. Consider E13S, for which the “folding stability dG” value turned out to be 4.66 kcal/mol.

On to E55D, for which the “folding stability dG” value came to 4.27 kcal/mol. For R49N the value was 4.35 kcal/mol. As to E62Y, the “folding stability dG” value was determined as 4.12 kcal/mol.

As to E20G, the “folding stability dG” value was determined as 4.32 kcal/mol.

As to E20F, the “folding stability dG” value is 4.98 kcal/mol. For Q14Y the value was 4.18 kcal/mol. For Q14T the value was 4.3 kcal/mol; for I39Y, 5 kcal/mol.

Turning to I39P, the “folding stability dG” value was 0.941 kcal/mol.

On to Q46F, for which the “folding stability dG” value came out at 4.43 kcal/mol. In the case of Q46G it was 4.48 kcal/mol; in that of Q46D, 4.37 kcal/mol; in that of V2H, 4.34 kcal/mol.

For V2G, the “folding stability dG” value came to 4.48 kcal/mol. For V2L the value was 4.27 kcal/mol. For V2K the value was 4.33 kcal/mol; for A22S, 4.19 kcal/mol. For A22M the value was 4.35 kcal/mol. For A22C, the “folding stability dG” value was 4.17 kcal/mol. Turning to A22L, the “folding stability dG” value is 4.62 kcal/mol. Turning to I3Y, the “folding stability dG” value is 4.7 kcal/mol.

Turning to V37C, the “folding stability dG” value is 4.19 kcal/mol.

For V37W, the “folding stability dG” value came to 4.36 kcal/mol. Turning to V37M, the “folding stability dG” value came out at 4.33 kcal/mol.

Regarding V37R, the “folding stability dG” value amounted to 3.03 kcal/mol. With V37L, the “folding stability dG” value was 4.39 kcal/mol. Turning to V37D, the “folding stability dG” value amounted to 3.02 kcal/mol. In the case of V37P it was 2.49 kcal/mol; in that of E28W, 4.53 kcal/mol. For E28C the value was 4.65 kcal/mol; for K42W, 4.26 kcal/mol; for K42T, 4.13 kcal/mol.

On to K42I, for which the “folding stability dG” value is 4.37 kcal/mol. In the case of K42L it was 4.13 kcal/mol. For K42P the value was 3.79 kcal/mol; for E4S, 4.54 kcal/mol. For E4G the value was 4.3 kcal/mol.

Consider E4F, for which the “folding stability dG” value turned out to be 4.76 kcal/mol.

On to V29S, for which the “folding stability dG” value came to 4.32 kcal/mol.

On to V29R, for which the “folding stability dG” value came out at 4.57 kcal/mol. In the case of V29L it was 4.2 kcal/mol; in that of G58L, 4.35 kcal/mol; in that of G58V, 4.21 kcal/mol. For G58I the value was 4.22 kcal/mol. For G58M the value was 4.33 kcal/mol.

As to G58A, the “folding stability dG” value turned out to be 4.3 kcal/mol.

As for G58S, the “folding stability dG” value amounted to 4.43 kcal/mol. In the case of G58P it was 3.83 kcal/mol; in that of A59C, 4.17 kcal/mol. For E60K the value was 4.38 kcal/mol; for E60I, 4.12 kcal/mol. In the case of E60C it was 4.27 kcal/mol; in that of E60M, 4.11 kcal/mol. As to A47T, the “folding stability dG” value stood at 4.34 kcal/mol. In the case of V30M it was 4.49 kcal/mol. Take N26G: the “folding stability dG” value turned out to be 4.43 kcal/mol.

N26T: the “folding stability dG” value turned out to be 4.41 kcal/mol. For N26H the value was 4.24 kcal/mol; for T11V, 4.48 kcal/mol. In the case of T11S it was 4.44 kcal/mol. For I21Y the value was 4.78 kcal/mol; for I21G, 3.77 kcal/mol; for A27E, 3.84 kcal/mol. K56W: the “folding stability dG” value is 4.26 kcal/mol.

K56Q: the “folding stability dG” value was 4.43 kcal/mol. For E1T the value was 4.26 kcal/mol; for E1F, 4.33 kcal/mol; for E36H, 4.68 kcal/mol.

Regarding E36P, the “folding stability dG” value was 4.07 kcal/mol. For E53K the value was 4.02 kcal/mol; for E53R, 4.03 kcal/mol. For R15M the value was 4.31 kcal/mol; for R15N, 4.17 kcal/mol. Regarding R15E, the “folding stability dG” value stood at 4.31 kcal/mol. For R15F the value was 4.35 kcal/mol; for R40T, 4.79 kcal/mol.

Regarding R40S, the “folding stability dG” value is 4.38 kcal/mol. In the case of E45F it was 4.44 kcal/mol; in that of E45N, 4.39 kcal/mol.

For the variant E45D, the “folding stability dG” value worked out at 4.22 kcal/mol. With G35F, the “folding stability dG” value worked out at 4.24 kcal/mol. For G35A the value was 4.5 kcal/mol; for K24T, 4.48 kcal/mol; for K24P, 3.96 kcal/mol. Regarding K24M, the “folding stability dG” value was 4.4 kcal/mol. In the case of K24C it was 4.53 kcal/mol; in that of K19W, 4.7 kcal/mol. In the case of K19D it was 4.31 kcal/mol; in that of K19Y, 4.89 kcal/mol; in that of K19F, 4.62 kcal/mol. In the case of K19N it was 4.11 kcal/mol; in that of K6P, 3.96 kcal/mol. For the variant K6E, the “folding stability dG” value stood at 3.75 kcal/mol. In the case of K6H it was 4.48 kcal/mol.
